Where no end group is shown, it is not given here.

This assay has as its target T1, LigIV DBD (Met1-Ile240) (UniProt P49917 1-240).
T1 construct: source: E. coli Rosetta2 (DE3), purified (Ni-NTA, TEV, SEC); not shown: His tag, N-terminal, cleaved
T1 sequence (looked up): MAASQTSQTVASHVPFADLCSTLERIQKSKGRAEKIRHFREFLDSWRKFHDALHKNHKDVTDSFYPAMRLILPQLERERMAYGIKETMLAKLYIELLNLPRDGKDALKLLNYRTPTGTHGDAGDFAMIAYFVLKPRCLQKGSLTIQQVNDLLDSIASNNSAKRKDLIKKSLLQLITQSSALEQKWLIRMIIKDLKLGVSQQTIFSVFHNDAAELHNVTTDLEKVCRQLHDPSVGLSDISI
Description: fluorescence polarisation; 25 nM FAM-labeled peptide constant, LigIV DBD 5 nM–200 μM; 15 mM Tris pH 7.5, 65 mM NaCl, 0.7 mM βME; 20 min. The following applies: both partners purified.

B1: FAM-labeled Artemis 486-496 peptide (peptide)
peptide: {FAM}-VPQWEVFFKRN
notes: Artemis, residues 486-496; also called Artemis peptide; source: synthetic peptide (GenScript)
The molecule B1 had a dissociation constant (Kd) of 1.5 to 4 µM.

B2: FAM-labeled Ku70 1-11 peptide (peptide)
peptide: {FAM}-MSGWESYYKTE
notes: Ku70, residues 1-11; The results call the modelled stretch 'Ku70 CTR', but the peptide is residues 1-11; also called Ku70 peptide; source: synthetic peptide (GenScript)
Take B2: the Kd was 29 to 30 µM.

The record behind these values is PMC13649775 (Nature Communications, 2026).
